Patent US20260132182A1 (published 2026)
Where two headings read alike, the source gives them in different places. One block for each binder: values may come before it. Starred links: 1 amine or outer side, 2 acyl side, 3 side chain; linkers in the order of their positions; H or OH if unused. Non-standard residues stand in square brackets, D forms with d. Groups on a side chain read outwards from the residue. No end group written: not given here. *: point of attachment. C18 diacid = O=C(O)CCCCCCCCCCCCCCCCC(=O)*; C16 diacid = O=C(O)CCCCCCCCCCCCCCC(=O)*; γGlu = O=C(O)[C@H](CCC(=O)[*:2])N[*:1]; AEEA = NCCOCCOCC(=O)O; Aib = CC(C)(N)C(=O)O

Assays:
Assay in all cases: cell-based or functional assay
human GLP-1 receptor [1] = molecular target: T1, human GLP-1 receptor (human, UniProt P43220 24-463)
[2] = molecular target: T2, human amylin-3 (a) receptor (human, UniProt P30988 25-474; O60896 24-148)
T2 sequence (looked up) 1: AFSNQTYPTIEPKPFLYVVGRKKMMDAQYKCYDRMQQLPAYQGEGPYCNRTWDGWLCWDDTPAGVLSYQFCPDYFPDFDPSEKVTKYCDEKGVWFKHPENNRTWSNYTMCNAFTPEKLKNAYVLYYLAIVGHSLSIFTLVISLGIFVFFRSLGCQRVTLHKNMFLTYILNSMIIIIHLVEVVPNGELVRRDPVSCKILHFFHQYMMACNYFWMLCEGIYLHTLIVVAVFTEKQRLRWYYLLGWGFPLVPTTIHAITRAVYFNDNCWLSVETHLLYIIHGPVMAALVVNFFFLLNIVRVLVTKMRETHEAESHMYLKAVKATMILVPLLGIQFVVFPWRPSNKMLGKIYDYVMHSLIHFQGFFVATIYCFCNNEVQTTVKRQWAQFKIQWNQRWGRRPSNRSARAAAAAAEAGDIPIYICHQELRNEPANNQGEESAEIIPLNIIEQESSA
T2 sequence (looked up) 2: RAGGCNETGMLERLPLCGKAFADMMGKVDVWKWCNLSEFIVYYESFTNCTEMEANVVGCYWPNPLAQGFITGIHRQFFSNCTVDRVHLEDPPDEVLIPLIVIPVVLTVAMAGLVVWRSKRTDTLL

human GLP-1 receptor [3] = molecular target: T1, human GLP-1 receptor; remark: listed apart in the source
[4] = molecular target: T2, human amylin-3 (a) receptor; remark: listed apart in the source
human GLP-1 receptor [5] = molecular target: T1, human GLP-1 receptor; remark: listed apart in the source
[6] = molecular target: T2, human amylin-3 (a) receptor; remark: listed apart in the source

B2: Comparator compound 0668 (peptide)
peptide: H[Aib]EGTFTSDVSSYLEGQAAK([AEEA-AEEA-γGlu-C18 diacid])EFIAWLVRGRGGQEPGQEPK([γGlu-γGlu-C16 diacid])CNTATCATQRLADFLRHSSPNFGAIPSSTNVGSRTY-NH2
modifications: ends and bridges not checked
Human GLP-1R potency [EC50 (pM)] (human GLP-1 receptor [5]): 455 pM
Human AmyR3 potency [EC50 (pM)] [6]: 10000 pM

B3: Comparator compound 0671 (peptide)
peptide: H[Aib]EGTFTSDVSSYLEEQAAREFIAWLVRGRK([AEEA-AEEA-γGlu-C18 diacid])GGGGEKCNTATCATQRLANFLVHSSNNFGPILPPTNVGSNTY-NH2
modifications: ends and bridges not checked
Human GLP-1R potency [EC50 (pM)] (human GLP-1 receptor [3]): 4.5 pM
Human AmyR3 potency [EC50 (pM)] [4]: 230 pM

B4: Comparator compound 0672 (peptide)
peptide: H[Aib]EGTFTSDVSSYLEEQAAREFIAWLVRGRK([AEEA-AEEA-γGlu-C18 diacid])GGGGEKCNTATCATQRLAEFLRHSSNNFGPILPPTNVGSNTP-NH2
modifications: ends and bridges not checked
Human GLP-1R potency [EC50 (pM)] (human GLP-1 receptor [3]): 2.2 pM
Human AmyR3 potency [EC50 (pM)] [4]: 606 pM

Further lines, results first:

Human GLP-1R potency [EC50 (pM)] (human GLP-1 receptor [1]): 3 pM
Human AmyR3 potency [EC50 (pM)] [2]: 11.5 pM
Human GLP-1R potency [EC50 (pM)] (human GLP-1 receptor [3]): 3 pM
Human AmyR3 potency [EC50 (pM)] [4]: 11.5 pM
B1: Compound 0111 (peptide)
peptide: H[Aib]EGTFTSDVSSYLEEQAAREFIAWLVRGRK([AEEA-AEEA-γGlu-C18 diacid])GGGGEASELSTAALGRLSAELHELATLPRTETGSGSP-NH2

Human AmyR3 potency [EC50 (pM)] [4]: 5 pM
Binder: EASELSTAALGRLSAELHELATLPRTETGSGSP-NH2 (not fully specified) [Compound 1806]

Human AmyR3 potency [EC50 (pM)] [6]: 7.8 pM
Human AmyR3 potency [EC50 (pM)] [4]: 7.8 pM
Binder: KCNTATCATQRLANFLVHSSNNFGPILPPTNVGSNTY [Pramlintide]
